# Source: patent publication US6645762B2, “Synthases” (The Salk Institute for Biological Studies, priority 1998, dated 2003)
# What was measured:
# Assay type in all cases: biochemical
# [1] = Alkylation of enzyme by radiolabeled FPP; conditions: dependent upon the presence of MgCl2
# Experimental: Reactions to determine the products made by TEAS W273E using FPP as substrate were carried out essentially as described above, using radioiabeled FPP. […] The alkylation was dependent upon the presence of MgCl2 in the reaction mixture. In control experiments, boiled W273E-TEAS, as well as wild-type TEAS and BSA, were not alkylated.
# [2] = Diterpene synthase activity assay with radiolabelled GGPP (solvent extraction, scintillation counting, Ag-TLC)
# Experimental: (§1) Synthase activity assays were carried out based on the assay described in Vogeli and Chappell, Plant Physiol. 94:1860 (1990) and Vogeli, et al., Plant Physiol. 93:182 (1990). In general, radio-labeled (^3H or ^14C) substrate was incubated with enzyme at room temperature in a buffered magnesium salt solution (200 mM Tris, pH 8, 50 mM Mg chloride, 1 mM DTT, unless otherwise noted); hydrocarbon products were then selectively extracted into an organic solvent such as hexane. The hexane extract generally was treated with silica gel to remove prenyl alcohols and other oxygenated compounds generated by non-enzymatic hydrolysis of substrate, which partition inefficiently into hexane. Hydrocarbon products present in the hexane phase were quantitated by scintillation counting.
# A subsequent extraction with a more polar organic solvent such as ethyl acetate was sometimes carried out. Oxygenated compounds more efficiently partition into ethyl acetate-type solvents. Compounds present in the ethyl acetate phase were also quantitated by scintillation counting.
# (§2) Substrate concentrations typically ranged from 0.1 nanomolar to 100 micromolar. In some assays, the substrate was not radiolabeled. Reactions generally were carried out in triplicate for each substrate concentration. Protein concentration was determined by the Bradford method. For determination of steady-state kinetic parameters, enzyme concentrations were chosen such that generation of products over time was linear throughout the course of the reaction.
# (§3) Diterpene synthase assays typically were carried out using ^3H geranylgeranyl diphosphate (GGPP) and enzyme in 250 mM Tris, 10 mM Mg chloride, 1 mM DTT, pH 8.0. Sesquiterpene synthase assays typically were carried out using ^14C or ^3H FPP and enzyme in 100 mM Tris, 30 mM Mg chloride, 1 mM DTT, pH 8.0. Monoterpene synthase assays typically were carried out using ^3H GPP and enzyme. As a control for nonspecific binding of GPP by protein, identical reactions were set up which contained BSA, rather than enzyme.
# (§4) Terpenoid hydrocarbon products are not readily separated by thin layer chromatography on normal or reverse-phase plates; however, some can be separated by argentation TLC (Ag-TLC), in which silica plates are first treated with silver nitrate. Ag-TLC described here generally followed the procedure described by Back et al., Arch. Biochem. Biophys. 315:527 (1994). A silica TLC plate was dipped in 15% silver nitrate (aqueous), then dried for 3-5 hours at 110° C. After spotting of tritiated enzymatic products (solvent extract), the plate was developed in benzene:hexane, ethyl acetate (50:50:1, by volume), sprayed with En^3Hance (NEN) fluorography spray, placed on film, and exposed for several days to several weeks. Long exposure times were generally necessary, as silver-nitrate treatment of the TLC plate appeared to cause quenching of the fluorography reagents fluorescence. Alternatively, ^14C labelled products were detected after one to two days without the use of fluorography spray.
# The TEAS W273S enzyme and radiolabelled GGPP were incubated as described above and hydrocarbon products were extracted with hexane. Oxygenated products were then extracted with ethyl acetate.
# The mutant TEAS C440W1W273S protein contains a tryptophan residue at position 440 and a serine residue at position 273. Assays with GGPP were carried out using 0.5 micromolar ^3H GGPP, various concentrations of unlabelled GGPP (Echelon), and enzyme. Reactions were incubated for 60 minutes at room temperature. […] Hexane-extractable products of GGPP turnover by the double mutant were analyzed by Ag-TLC. The products included two species (Rf=0.11 and 0.28) that were distinct from the hydrolysis product geranyl geraniol (Rf=0.0).To verify that products generated by TEAS C440W/W273S from GGPP were not the hydrolysis product, geranylgeraniol, a sample was analyzed by Ag-TLC. […]
# [3] = Sesquiterpene synthase activity assay with radiolabelled FPP (Ag-TLC and GC/MS product analysis); conditions: radiolabelled FPP; FIG. 4
# Experimental: as §1, §2, §3, §4
# Products of FPP turnover by the purified TEAS W273S mutant were analyzed by argentation thin-layer chromatography (Ag-TLC).
# Reactions with FPP as substrate were carded out with ^14C FPP (9 μm) and enzyme (160 μm) in reaction buffer (20 μl). After incubating for 30 minutes at room temperature, products made by TEAS C440W/W273S were analyzed by Ag-TLC. […] The new product was distinct from both 5-epi-aristolochene and vetispiradiene. Several other products were also formed, many of which migrated slowly upon argentation TLC.
# Reactions with radiolabeled FPP and TEAS Y520F enzyme were carried out essentially as described above. Reaction products were analysed by Ag-TLC and by GC/MS.
# [4] = Monoterpene synthase activity assay with GPP; conditions: crude extract of enzyme from E. coli
# Experimental: as §1, §3
# A crude extract of TEAS Y527F enzyme was made by inducing expression in E. coli cells, and sonicating the cells. […]
alkylation of the enzyme by FPP [1],Molecule,"conversion of GGPP to hexane-extractable products ([2]; 0.5 micromolar 3H GGPP plus unlabelled GGPP, 60 minutes at room temperature)","counts in hexane and ethyl acetate extracts after incubation with radiolabelled GGPP ([2]; hydrocarbon products extracted with hexane, oxygenated products with ethyl acetate, compared with buffer alone)","products of FPP turnover, analyzed by Ag-TLC [3]",products formed with GPP as a substrate (monoterpene synthase activity) [4]
not alkylated,"wild-type TEAS: tobacco 5-epi-aristolochene synthase (TEAS) protein, SEQ ID NO:2, Nicotiana tabacum (protein) MASAAVANYEEEIVRPVADFSPSLWGDQFLSFSIKNQVAEKYAQEIEALKEQTRNMLLATGMKLADTLNLIDTIERLGISYHFEKEIDDILDQIYNQNSNCNDLCTSALQFRLLRQHGFNISPEIFSKFQDENGKFKESLASDVLGLLNLYEASHVRTHADDILEDALAFSTIHLESAAPHLKSPLREQVTHALEQCLHKGVPRVETRFFISSIYDKEQSKNNVLLRFAKLDFNLLQMLHKQELAQVSRWWKDLDFVTTLPYARDRVVECYFWALGVYFEPQYSQARVMLVKTISMISIVDDTFDAYGTVKELEAYTDAIQRWDINEIDRLPDYMKISYKAILDLYKDYEKELSSAGRSHIVCHAIERMKEVVRNYNVESTWFIEGYTPPVSEYLSNALATTTYYYLATTSYLGMKSATEQDFEWLSKNPKILEASVIICRVIDDTATYEVEKSRGQIATGIECCMRDYGISTKEAMAKFQNMAETAWKDINEGLLRPTPVSTEFLTPILNLARIVEVTYIHNLDGYTHPEKVLKPHIINLLVDSIKI",did not,counts lower than buffer alone,,
alkylation of TEAS by FPP had occurred,"TEAS W273E: TEAS protein in which Trp273 is changed to Glu, SEQ ID NO:4 (protein) MASAAVANYEEEIVRPVADFSPSLWGDQFLSFSIDNQVAEKYAQEIEALKEQTRSMLLATGRKLADTLNLIDIIERLGISYHFEKEIDEILDQIYNQNSNCNDLCTSALQFRLLRQHGFNISPEIFSKFQDENGKFKESLASDVLGLLNLYEASHVRTHADDILEDALAFSTIHLESAAPHLKSPLREQVTHALEQCLHKGVPRVETRFFISSIYDKEQSKNNVLLRFAKLDFNLLQMLHKQELAQVSRWWKDLDFVTTLPYARDRVVECYFEALGVYFEPQYSQARVMLVKTISMISIVDDTFDAYGTVKELEAYTDAIQRWDINEIDRLPDYMKISYKAILDLYKDYEKELSSAGRSHIVCHAIERMKEVVRNYNVESTWFIEGYMPPVSEYLSNALATTTYYYLATTSYLGMKSATEQDFEWLSKNPKILEASVIICRVIDDTATYEVEKSRGQIATGIECCMRDYGISTKEAMAKFQNMAETAWKDINEGLLRPTPVSTEFLTPILNLARIVEVTYIHNLDGYTHPEKVLKPHIINLLVDSIKI",,,at least one product other than 5-epi-aristolochene was formed,
,"TEAS Y527F: TEAS protein in which Tyr527 is changed to Phe, SEQ ID NO:8 (protein) MASAAVANYEEEIVRPVADFSPSLWGDQFLSFSIDNQVAEKYAQEIEALKEQTRSMLLATGRKLADTLNLIDIIERLGISYHFEKEIDEILDQIYNQNSNCNDLCTSALQFRLLRQHGFNISPEIFSKFQDENGKFKESLASDVLGLLNLYEASHVRTHADDILEDALAFSTIHLESAAPHLKSPLREQVTHALEQCLHKGVPRVETRFFISSIYDKEQSKNNVLLRFAKLDFNLLQMLHKQELAQVSRWWKDLDFVTTLPYARDRVVECYFWALGVYFEPQYSQARVMLVKTISMISIVDDTFDAYGTVKELEAYTDAIQRWDINEIDRLPDYMKISYKAILDLYKDYEKELSSAGRSHIVCHAIERMKEVVRNYNVESTWFIEGYMPPVSEYLSNALATTTYYYLATTSYLGMKSATEQDFEWLSKNPKILEASVIICRVIDDTATYEVEKSRGQIATGIECCMRDYGISTKEAMAKFQNMAETAWKDINEGLLRPTPVSTEFLTPILNLARIVEVTYIHNLDGFTHPEKVLKPHIINLLVDSIKI",,,products other than 5-epi-aristolochene were generated,No products were observed
